This is an account of results in patent publication CN116963747A (UNIV TEXAS, dated 2023).

B1: HA-TRAF2 (other, human, UniProt Q12933 1-501, looked up)
chain: MAAASVTPPGSLELLQPGFSKTLLGTKLEAKYLCSACRNVLRRPFQAQCGHRYCSFCLASILSSGPQNCAACVHEGIYEEGISILESSSAFPDNAARREVESLPAVCPSDGCTWKGTLKEYESCHEGRCPLMLTECPACKGLVRLGEKERHLEHECPERSLSCRHCRAPCCGADVKAHHEVCPKFPLTCDGCGKKKIPREKFQDHVKTCGKCRVPCRFHAIGCLETVEGEKQQEHEVQWLREHLAMLLSSVLEAKPLLGDQSHAGSELLQRCESLEKKTATFENIVCVLNREVERVAMTAEACSRQHRLDQDKIEALSSKVQQLERSIGLKDLAMADLEQKVLEMEASTYDGVFIWKISDFARKRQEAVAGRIPAIFSPAFYTSRYGYKMCLRIYLNGDGTGRGTHLSLFFVVMKGPNDALLRWPFNQKVTLMLLDQNNREHVIDAFRPDVTSSSFQRPVNDMNIASGCPLFCPVSKMEAKNSYVRDDAIFIKAIVDLTGL
notes: also called 外源HA-TRAF2; not shown: HA tag

One test addresses T1, LILRB3 QEE509-511AAA突变体 (human, UniProt O75022 24-631).
T1 construct: It is probably hFc-fused like the other LILRB3 constructs; also called B3AAA
The experiment in a line: co-IP in 293T cells.

For the next test, the target named is 氨基酸505-515缺失的LILRB3 (human, UniProt O75022 24-631). Briefly: co-IP in 293T cells.
Test [1] has as its target T2, LILRB3-hFc (全长LILRB3, C末端hFc标签) (human, UniProt O75022 24-631).
T2 construct: whole, on cells; also called hFc加标签的B3-FL; not shown: human Fc (hFc) fused at the C-terminus in the pFLAG-CMV5.1 vector
The experiment in a line: co-IP of HA-TRAF2 with hFc-fused LILRBs in 293T cells.

The target of test [2] is T2, LILRB3-hFc (全长LILRB3, C末端hFc标签). Briefly: co-IP in THP-1 cells stably expressing LILRB3-hFc.
Test [3] addresses T3, LILRB3 (白细胞免疫球蛋白样受体亚家族B成员3), full length (human, UniProt O75022 24-631).
T3 construct: whole, on cells; also called B3-FL; 全长LILRB3
The experiment in a line: co-IP from primary M5 AML cells with human anti-LILRB3 antibody.

Test [4] concerns the target T2, LILRB3-hFc (全长LILRB3, C末端hFc标签). Briefly: co-IP of endogenous TRAF2 with LILRB3-hFc in THP-1 cells, with LPS or PBS.
A further test concerns the target FLAG-cFLIP (human, UniProt O15519 1-480). Briefly: co-IP in 293T cells.
The test “HA-TRAF2” has as its target B1. Briefly: co-IP in 293T cells with or without FLAG-A20N (Fig 6j).

Sequence of FLAG-cFLIP (O15519 whole entry): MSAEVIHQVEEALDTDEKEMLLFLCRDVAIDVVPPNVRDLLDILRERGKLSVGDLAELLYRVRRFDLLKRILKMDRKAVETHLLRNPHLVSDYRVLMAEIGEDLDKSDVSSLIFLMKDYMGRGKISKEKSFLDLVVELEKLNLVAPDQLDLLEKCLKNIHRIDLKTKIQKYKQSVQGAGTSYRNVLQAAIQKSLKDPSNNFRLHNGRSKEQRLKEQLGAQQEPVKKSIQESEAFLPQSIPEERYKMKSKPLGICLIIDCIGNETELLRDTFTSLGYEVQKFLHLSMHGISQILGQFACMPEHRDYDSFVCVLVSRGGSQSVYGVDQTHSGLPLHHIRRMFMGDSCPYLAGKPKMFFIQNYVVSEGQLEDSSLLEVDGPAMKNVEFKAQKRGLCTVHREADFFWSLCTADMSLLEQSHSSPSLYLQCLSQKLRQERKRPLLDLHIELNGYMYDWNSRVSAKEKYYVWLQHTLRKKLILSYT

Turning to B1, the binding result in the test with LILRB3 QEE509-511AAA突变体 is “no binding”; with 氨基酸505-515缺失的LILRB3, “no binding”; in test [1], “binds”.

B2: SHP-1 (enzyme)
chain: not shown
notes: also called 内源性SHP-1; 外源SHP-1
For the molecule B2, the binding result in test [2] is “binds”.

B3: TRAF2 (other, human, UniProt Q12933 2-501, looked up)
chain: AAASVTPPGSLELLQPGFSKTLLGTKLEAKYLCSACRNVLRRPFQAQCGHRYCSFCLASILSSGPQNCAACVHEGIYEEGISILESSSAFPDNAARREVESLPAVCPSDGCTWKGTLKEYESCHEGRCPLMLTECPACKGLVRLGEKERHLEHECPERSLSCRHCRAPCCGADVKAHHEVCPKFPLTCDGCGKKKIPREKFQDHVKTCGKCRVPCRFHAIGCLETVEGEKQQEHEVQWLREHLAMLLSSVLEAKPLLGDQSHAGSELLQRCESLEKKTATFENIVCVLNREVERVAMTAEACSRQHRLDQDKIEALSSKVQQLERSIGLKDLAMADLEQKVLEMEASTYDGVFIWKISDFARKRQEAVAGRIPAIFSPAFYTSRYGYKMCLRIYLNGDGTGRGTHLSLFFVVMKGPNDALLRWPFNQKVTLMLLDQNNREHVIDAFRPDVTSSSFQRPVNDMNIASGCPLFCPVSKMEAKNSYVRDDAIFIKAIVDLTGL
notes: also called 内源TRAF2
As for B3, the binding result in test [3] and in test [4] was “binds” in each case.

B4: B3ICDhFc (LILRB3胞内结构域, C末端与hFc融合) (Fc fusion, human, UniProt O75022 465-631, looked up)
chain: RRQRHSKHRTSDQRKTDFQRPAGAAETEPKDRGLLRRSSPAADVQEENLYAAVKDTQSEDRVELDSQSPHDEDPQAVTYAPVKHSSPRREMASPPSSLSGEFLDTKDRQVEEDRQMDTEAAASEASQDVTYAQLHSLTLRRKATEPPPSQEGEPPAEPSIYATLAIH
notes: domain: 胞内结构域; Purified for the in vitro pull-down with GST-TRAF2; not shown: human Fc (hFc) fused at the C-terminus
On to B4, for which the binding result was “no binding” in the test with FLAG-cFLIP and “binds” with HA-TRAF2.
